This note sets out measurements from doi:10.1101/2020.11.19.389429.

The target in this data set is CHD7 full length WT (UniProt Q9P2D1). The data set is described as follows: single-molecule PIFE/smFRET.
Sequence of UniProt Q9P2D1 (Q9P2D1 whole entry): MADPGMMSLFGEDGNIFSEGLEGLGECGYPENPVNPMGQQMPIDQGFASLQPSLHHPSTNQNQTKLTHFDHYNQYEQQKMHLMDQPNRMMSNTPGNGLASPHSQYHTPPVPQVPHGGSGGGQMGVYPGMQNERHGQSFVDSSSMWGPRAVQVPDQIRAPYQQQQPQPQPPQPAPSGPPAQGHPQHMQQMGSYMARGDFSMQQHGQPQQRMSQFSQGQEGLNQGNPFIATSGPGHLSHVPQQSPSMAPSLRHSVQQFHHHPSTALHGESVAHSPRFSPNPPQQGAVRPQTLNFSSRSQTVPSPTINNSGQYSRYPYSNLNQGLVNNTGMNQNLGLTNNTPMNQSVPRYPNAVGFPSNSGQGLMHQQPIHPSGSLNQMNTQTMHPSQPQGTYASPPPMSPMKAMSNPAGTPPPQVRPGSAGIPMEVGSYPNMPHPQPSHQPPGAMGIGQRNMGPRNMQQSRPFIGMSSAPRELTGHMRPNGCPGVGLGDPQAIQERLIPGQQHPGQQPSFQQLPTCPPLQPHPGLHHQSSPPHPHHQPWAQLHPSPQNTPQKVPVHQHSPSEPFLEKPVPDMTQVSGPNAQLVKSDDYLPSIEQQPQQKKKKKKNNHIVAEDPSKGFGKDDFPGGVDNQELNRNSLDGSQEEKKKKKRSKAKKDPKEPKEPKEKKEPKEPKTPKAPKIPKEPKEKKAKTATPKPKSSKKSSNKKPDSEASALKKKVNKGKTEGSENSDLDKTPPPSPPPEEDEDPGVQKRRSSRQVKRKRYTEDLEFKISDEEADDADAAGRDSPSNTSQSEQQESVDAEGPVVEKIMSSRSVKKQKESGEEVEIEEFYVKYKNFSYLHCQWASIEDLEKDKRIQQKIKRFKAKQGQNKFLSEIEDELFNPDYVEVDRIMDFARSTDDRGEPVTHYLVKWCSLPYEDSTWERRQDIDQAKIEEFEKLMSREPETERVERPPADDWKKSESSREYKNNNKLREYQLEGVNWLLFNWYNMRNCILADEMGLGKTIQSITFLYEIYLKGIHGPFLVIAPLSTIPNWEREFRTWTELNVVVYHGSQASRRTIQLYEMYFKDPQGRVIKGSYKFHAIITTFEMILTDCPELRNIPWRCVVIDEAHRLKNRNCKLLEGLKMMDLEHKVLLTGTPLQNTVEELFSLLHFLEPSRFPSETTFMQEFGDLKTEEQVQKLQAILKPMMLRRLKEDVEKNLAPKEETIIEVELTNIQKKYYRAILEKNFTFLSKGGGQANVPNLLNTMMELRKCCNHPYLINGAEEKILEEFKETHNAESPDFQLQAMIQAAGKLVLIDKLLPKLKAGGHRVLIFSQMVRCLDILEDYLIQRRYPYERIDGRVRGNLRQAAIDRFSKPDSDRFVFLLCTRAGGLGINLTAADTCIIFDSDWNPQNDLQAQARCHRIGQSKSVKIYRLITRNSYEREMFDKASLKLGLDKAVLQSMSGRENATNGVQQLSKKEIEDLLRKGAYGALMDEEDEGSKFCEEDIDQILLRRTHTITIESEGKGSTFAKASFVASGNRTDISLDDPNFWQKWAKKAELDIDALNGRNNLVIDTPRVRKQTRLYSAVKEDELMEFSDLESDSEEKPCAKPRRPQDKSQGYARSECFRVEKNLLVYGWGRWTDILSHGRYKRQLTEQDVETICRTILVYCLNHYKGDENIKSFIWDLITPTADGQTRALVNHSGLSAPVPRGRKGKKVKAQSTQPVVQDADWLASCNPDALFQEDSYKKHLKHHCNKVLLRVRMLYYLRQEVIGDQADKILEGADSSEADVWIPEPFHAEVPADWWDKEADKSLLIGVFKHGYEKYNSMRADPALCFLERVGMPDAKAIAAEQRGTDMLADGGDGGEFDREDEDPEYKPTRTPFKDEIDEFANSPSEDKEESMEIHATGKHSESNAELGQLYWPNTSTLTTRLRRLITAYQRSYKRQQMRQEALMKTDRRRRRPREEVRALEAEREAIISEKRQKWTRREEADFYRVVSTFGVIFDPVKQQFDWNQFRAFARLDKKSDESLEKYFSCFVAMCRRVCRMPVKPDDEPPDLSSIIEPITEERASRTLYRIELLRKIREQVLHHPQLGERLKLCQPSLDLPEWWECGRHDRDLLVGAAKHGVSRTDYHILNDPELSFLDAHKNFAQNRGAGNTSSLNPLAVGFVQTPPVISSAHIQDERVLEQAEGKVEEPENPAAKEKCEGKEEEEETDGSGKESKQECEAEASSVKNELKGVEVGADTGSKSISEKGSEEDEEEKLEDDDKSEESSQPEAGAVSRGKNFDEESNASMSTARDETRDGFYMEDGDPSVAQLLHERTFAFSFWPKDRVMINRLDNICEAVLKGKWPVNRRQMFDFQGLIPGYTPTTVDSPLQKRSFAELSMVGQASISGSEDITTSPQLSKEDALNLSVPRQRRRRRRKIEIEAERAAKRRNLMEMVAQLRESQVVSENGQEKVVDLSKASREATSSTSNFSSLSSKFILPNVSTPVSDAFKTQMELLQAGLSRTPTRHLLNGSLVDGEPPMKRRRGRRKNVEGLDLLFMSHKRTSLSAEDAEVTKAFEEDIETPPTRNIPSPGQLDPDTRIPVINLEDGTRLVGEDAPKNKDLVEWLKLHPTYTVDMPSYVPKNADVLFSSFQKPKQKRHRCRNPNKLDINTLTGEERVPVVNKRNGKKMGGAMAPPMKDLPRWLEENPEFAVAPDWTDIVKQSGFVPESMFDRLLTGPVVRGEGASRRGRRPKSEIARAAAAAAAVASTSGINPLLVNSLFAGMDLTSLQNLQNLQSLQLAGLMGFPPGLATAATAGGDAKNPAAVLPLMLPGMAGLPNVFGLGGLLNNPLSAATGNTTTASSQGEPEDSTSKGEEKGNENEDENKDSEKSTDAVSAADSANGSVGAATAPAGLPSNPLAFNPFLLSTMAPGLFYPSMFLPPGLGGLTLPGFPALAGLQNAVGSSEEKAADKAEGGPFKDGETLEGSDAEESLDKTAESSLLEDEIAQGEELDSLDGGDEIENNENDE

For the sequence “GCCCTGGAGAATCCCGGTCTGCAGGCCGCTCAATTGGTCGTAGACAGCTCTAGCACCGCTTAAACGCACGTACGCGCTGTCCCCCGCGTTTTAACCGCCAAGGGGATTACTCCCTAGTCTCCAGGCACGTGTCAGATATATACATCCTGTGCATGTATTGAACAGCGACCTTGCCGGTGCCAGTCGGATAGTGTTCCGAGCTCCCACTCTAGAGGATCCCCGGGTACC (double strand) [smFRET 601 nucleosome, 3 bp exit linker, 78 bp entry linker]”, the binding signal (% of nucleosomes with PIFE) amounted to 76.5.
